Data reported in PMC2756588.

T1: Cyk3, Q07533
T1 sequence (Q07533 1-83, looked up): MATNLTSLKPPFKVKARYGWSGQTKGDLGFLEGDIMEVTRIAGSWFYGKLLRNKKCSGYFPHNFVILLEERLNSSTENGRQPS

T2: Bzz1-2, P38822
T2 sequence (P38822 568-633, looked up): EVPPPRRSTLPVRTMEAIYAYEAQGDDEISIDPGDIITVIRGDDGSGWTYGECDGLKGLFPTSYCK

T3: Bud14, P27637
T3 sequence (P27637 247-328, looked up): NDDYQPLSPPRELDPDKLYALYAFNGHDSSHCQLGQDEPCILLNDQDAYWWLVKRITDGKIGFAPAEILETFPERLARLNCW

T4: Abp1, P15891
T4 sequence (P15891 535-592, looked up): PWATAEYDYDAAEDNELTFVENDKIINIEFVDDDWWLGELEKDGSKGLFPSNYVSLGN

T5: Myo5, Q04439
T5 sequence (Q04439 1072-1160, looked up): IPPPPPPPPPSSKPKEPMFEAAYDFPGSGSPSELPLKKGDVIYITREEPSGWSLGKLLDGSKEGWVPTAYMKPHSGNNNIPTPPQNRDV

T6: Nbp2, Q12163
T6 sequence (Q12163 103-180, looked up): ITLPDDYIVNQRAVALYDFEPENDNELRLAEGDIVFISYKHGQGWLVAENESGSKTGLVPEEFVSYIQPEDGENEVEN

T7: Sla1-2, P32790
T7 sequence (P32790 60-140, looked up): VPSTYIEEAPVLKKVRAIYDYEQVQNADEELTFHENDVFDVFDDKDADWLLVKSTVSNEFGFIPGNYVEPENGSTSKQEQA

T8: Pex13, P80667
T8 sequence (P80667 295-386, looked up): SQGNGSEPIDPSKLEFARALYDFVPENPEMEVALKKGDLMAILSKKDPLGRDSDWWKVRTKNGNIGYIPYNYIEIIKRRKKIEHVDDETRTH

T9: Boi2, P39969
T9 sequence (P39969 32-116, looked up): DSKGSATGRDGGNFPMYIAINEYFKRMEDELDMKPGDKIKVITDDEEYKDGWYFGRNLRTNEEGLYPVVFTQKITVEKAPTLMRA

T10: Lsb4, P32793
T10 sequence (P32793 402-468, looked up): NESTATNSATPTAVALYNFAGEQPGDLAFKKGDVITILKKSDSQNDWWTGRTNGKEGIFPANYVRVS

T11: Bzz1-1, P38822
T11 sequence (P38822 478-572, looked up): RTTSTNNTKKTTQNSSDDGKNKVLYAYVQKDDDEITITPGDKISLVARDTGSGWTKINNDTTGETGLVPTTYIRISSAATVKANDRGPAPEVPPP

T12: Bbc1, P47068
T12 sequence (P47068 1-78, looked up): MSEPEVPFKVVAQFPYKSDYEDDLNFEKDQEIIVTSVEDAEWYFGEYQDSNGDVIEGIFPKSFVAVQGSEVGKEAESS

T13: Lsb1, P53281
T13 sequence (P53281 45-122, looked up): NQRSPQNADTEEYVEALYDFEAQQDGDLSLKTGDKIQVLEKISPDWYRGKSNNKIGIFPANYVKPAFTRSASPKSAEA

T14: Hof1, Q05080
T14 sequence (Q05080 590-669, looked up): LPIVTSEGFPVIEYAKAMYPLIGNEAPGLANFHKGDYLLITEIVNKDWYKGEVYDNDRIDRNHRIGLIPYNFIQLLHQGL

T15: Cdc25, P04821
T15 sequence (P04821 50-136, looked up): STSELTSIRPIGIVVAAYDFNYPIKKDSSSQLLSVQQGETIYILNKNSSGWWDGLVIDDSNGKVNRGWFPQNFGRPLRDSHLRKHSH

T16: Fus1, P11710
T16 sequence (P11710 432-512, looked up): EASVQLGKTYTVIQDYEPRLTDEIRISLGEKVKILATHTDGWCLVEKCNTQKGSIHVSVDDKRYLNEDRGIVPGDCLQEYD

T17: Lsb3, P43603
T17 sequence (P43603 385-451, looked up): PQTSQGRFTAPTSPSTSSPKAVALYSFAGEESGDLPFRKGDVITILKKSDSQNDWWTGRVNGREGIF

T18: Sla1-3, P32790
T18 sequence (P32790 344-424, looked up): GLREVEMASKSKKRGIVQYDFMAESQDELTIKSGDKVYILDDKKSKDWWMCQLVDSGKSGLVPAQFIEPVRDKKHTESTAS

T19: Pin3, Q06449
T19 sequence (Q06449 53-122, looked up): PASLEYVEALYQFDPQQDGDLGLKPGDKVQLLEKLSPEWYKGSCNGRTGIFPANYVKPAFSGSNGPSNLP

T20: Boi1, P38041
T20 sequence (P38041 1-86, looked up): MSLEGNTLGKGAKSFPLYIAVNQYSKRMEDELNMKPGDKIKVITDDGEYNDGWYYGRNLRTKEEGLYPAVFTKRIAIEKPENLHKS

T21: Hse1, P38753
T21 sequence (P38753 208-285, looked up): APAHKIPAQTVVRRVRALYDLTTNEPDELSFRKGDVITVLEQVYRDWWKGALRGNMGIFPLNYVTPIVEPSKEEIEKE

B1: unnamed (peptide)
chain: NTMKKRPAPPSLPSL
B2: unnamed (peptide)
chain: YLTRPLPSTPNEDSR
B3: unnamed (peptide)
chain: DRIRMFIRFPKFLLE

Target: T1, Cyk3, Q07533
Test: SPOT array
Conditions: median of control spots 1451

Row | Binder | SPOT intensity
1 | B1 | 1
2 | B2 | 0
3 | B3 | 2

Target: T2, Bzz1-2, P38822
Test: SPOT array
Conditions: median of control spots 4538

Row | Binder | SPOT intensity
4 | B1 | 1440
5 | B2 | 0
6 | B3 | 0

Target: T3, Bud14, P27637
Test: SPOT array
Conditions: median of control spots 956

Row | Binder | SPOT intensity
7 | B1 | 21
8 | B2 | 1
9 | B3 | 8

Target: T4, Abp1, P15891
Test: SPOT array
Conditions: median of control spots 935

Row | Binder | SPOT intensity
10 | B1 | 205
11 | B2 | 0
12 | B3 | 108

Target: T5, Myo5, Q04439
Test: SPOT array
Conditions: median of control spots 471

Row | Binder | SPOT intensity
13 | B1 | 115
14 | B2 | 0
15 | B3 | 2

Target: T6, Nbp2, Q12163
Test: SPOT array
Conditions: median of control spots 357

Row | Binder | SPOT intensity
16 | B1 | 120
17 | B2 | 0
18 | B3 | 52

Target: T7, Sla1-2, P32790
Test: SPOT array
Conditions: median of control spots 712

Row | Binder | SPOT intensity
19 | B1 | 1
20 | B2 | 0
21 | B3 | 0

Target: Rvs167, P39743
Test: SPOT array
Conditions: median of control spots 2707

Rvs167, P39743, sequence (P39743 419-482): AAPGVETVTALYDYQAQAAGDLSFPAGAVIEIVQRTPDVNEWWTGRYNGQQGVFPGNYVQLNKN

Row | Binder | SPOT intensity
22 | B1 | 9
23 | B2 | 15
24 | B3 | 0

Target: T8, Pex13, P80667
Test: SPOT array
Conditions: median of control spots 1341

Row | Binder | SPOT intensity
25 | B1 | 80
26 | B2 | 297
27 | B3 | 38

Target: T9, Boi2, P39969
Test: SPOT array
Conditions: median of control spots 1161

Row | Binder | SPOT intensity
28 | B1 | 2
29 | B2 | 1
30 | B3 | 3

Target: T10, Lsb4, P32793
Test: SPOT array
Conditions: median of control spots 397

Row | Binder | SPOT intensity
31 | B1 | 63
32 | B2 | 598
33 | B3 | 7

Target: GST
Test: SPOT array
Conditions: median of control spots 978

Row | Binder | SPOT intensity
34 | B1 | 0
35 | B2 | 0
36 | B3 | 0

Target: T11, Bzz1-1, P38822
Test: SPOT array
Conditions: median of control spots 4446

Row | Binder | SPOT intensity
37 | B1 | 60
38 | B2 | 0
39 | B3 | 0

Target: T12, Bbc1, P47068
Test: SPOT array
Conditions: median of control spots 796

Row | Binder | SPOT intensity
40 | B1 | 15
41 | B2 | 0
42 | B3 | 43

Target: T13, Lsb1, P53281
Test: SPOT array
Conditions: median of control spots 388

Row | Binder | SPOT intensity
43 | B1 | 52
44 | B2 | 8
45 | B3 | 4

Target: T14, Hof1, Q05080
Test: SPOT array
Conditions: median of control spots 4086

Row | Binder | SPOT intensity
46 | B1 | 489
47 | B2 | 0
48 | B3 | 21

Target: T15, Cdc25, P04821
Test: SPOT array
Conditions: median of control spots 969

Row | Binder | SPOT intensity
49 | B1 | 58
50 | B2 | 0
51 | B3 | 77

Target: Bem1-2, P29366
Test: SPOT array
Conditions: median of control spots 4347

Bem1-2, P29366, sequence (P29366 139-227): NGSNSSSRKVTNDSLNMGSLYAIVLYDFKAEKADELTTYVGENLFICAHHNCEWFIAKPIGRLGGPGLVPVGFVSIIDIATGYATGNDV

Row | Binder | SPOT intensity
52 | B1 | 56
53 | B2 | 12
54 | B3 | 20

Target: T16, Fus1, P11710
Test: SPOT array
Conditions: median of control spots 1200

Row | Binder | SPOT intensity
55 | B1 | 0
56 | B2 | 0
57 | B3 | 39

Target: T17, Lsb3, P43603
Test: SPOT array
Conditions: median of control spots 406

Row | Binder | SPOT intensity
58 | B1 | 12
59 | B2 | 139
60 | B3 | 6

Target: Myo3, P36006
Test: SPOT array
Conditions: median of control spots 468

Row | Binder | SPOT intensity
61 | B1 | 99
62 | B2 | 0
63 | B3 | 18

Target: T18, Sla1-3, P32790
Test: SPOT array
Conditions: median of control spots 5475

Row | Binder | SPOT intensity
64 | B1 | 11
65 | B2 | 1
66 | B3 | 24

Target: T19, Pin3, Q06449
Test: SPOT array
Conditions: median of control spots 2171

Row | Binder | SPOT intensity
67 | B1 | 57
68 | B2 | 0
69 | B3 | 30

Target: Bem1-1, P29366
Test: SPOT array
Conditions: median of control spots 4282

Bem1-1, P29366, sequence (P29366 55-141): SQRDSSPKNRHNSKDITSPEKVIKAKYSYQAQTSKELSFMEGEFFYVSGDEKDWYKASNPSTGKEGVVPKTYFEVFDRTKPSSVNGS

Row | Binder | SPOT intensity
70 | B1 | 0
71 | B2 | 0
72 | B3 | 0

Target: T20, Boi1, P38041
Test: SPOT array
Conditions: median of control spots 1162

Row | Binder | SPOT intensity
73 | B1 | 7
74 | B2 | 0
75 | B3 | 7

Target: T21, Hse1, P38753
Test: SPOT array
Conditions: median of control spots 1727

Row | Binder | SPOT intensity
76 | B1 | 53
77 | B2 | 6
78 | B3 | 17

Target: Sho1, P40073
Test: SPOT array
Conditions: median of control spots 1148

Sho1, P40073, sequence (P40073 287-367): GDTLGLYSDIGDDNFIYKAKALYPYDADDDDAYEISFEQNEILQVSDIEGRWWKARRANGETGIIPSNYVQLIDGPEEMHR

Row | Binder | SPOT intensity
79 | B1 | 95
80 | B2 | 1320
81 | B3 | 71
